In assay [1] the target is HCV E1E2 complex, isolate H77 (genotype 1a) (hepatitis C virus genotype 1a, isolate …, UniProt P27958 192-383; P27958 384-746). The experiment in a line: apparent affinity: half-maximal binding, ELISA on lectin-captured E1E2. In general terms: In an ELISA, binding on a coated surface is turned into a signal by an enzyme label.
In assay [2] the target is HCV E1E2 complex, isolate HCV-1 (genotype 1a), vaccinia-expressed (hepatitis C virus genotype 1a, isolate …, UniProt P26664 192-383; P26664 384-746). The assay is described as above.
For assay [3], the target named is T1, HCV E1E2 complex, isolate H77 (genotype 1a) (hepatitis C virus genotype 1a, isolate …, UniProt P27958 192-383; P27958 384-746).
T1 construct: also called E1E2 (H77); Folded E1E2
Nature of the assay: competition ELISA on lectin-captured H77 E1E2; competitor: Fab P5.

In assay [4] the target is T1, HCV E1E2 complex, isolate H77 (genotype …). The experiment in a line: competition ELISA on lectin-captured H77 E1E2; competitor: Fab P6.
Assay [5] has the same target. The experiment in a line: competition ELISA on lectin-captured H77 E1E2; competitor: Fab Q1.
The target is the same in assay [6]. Nature of the assay: competition ELISA on lectin-captured H77 E1E2; competitor: Fab Q2.
Assay [7] shares this target. Nature of the assay: competition ELISA on lectin-captured H77 E1E2; competitor: Fab R1.
Assay [8] shares this target. The experiment in a line: competition ELISA on lectin-captured H77 E1E2; competitor: Fab S1.
The target is the same in assay [9]. Nature of the assay: competition ELISA on lectin-captured H77 E1E2; competitor: Fab T1.
Assay [10] has the same target. The experiment in a line: competition ELISA on lectin-captured H77 E1E2; competitor: Fab U1.
For assay [11] the target is unchanged. Nature of the assay: competition ELISA on lectin-captured H77 E1E2; competitor: Fab V1.

What is called EC50 is the concentration giving half of the maximal effect.

B1: MAb AR2A (IgG1 from Fab G) (antibody, V domains shown)
VH: LEQSGAEMKKPGASLKVSCKTSGYTFDDYGVTWVRQAPGQGLEWMGWISAYSGNTFYARKFQGRVTMTTDPSTRTAYMELRSLRSDDTAVYFCARDRGLAINGVVFPYFGLDVWGQGTTVTVSS
VL: ELTQSPVSLPVTPGEPASISCRSSQSLLHSNGNHYLDWYLQKPGQSPQLLMYLGSNRASGVPDRFSGSGSGTDFTLKISRVEAEDVGVYYCMQGLQTPWTFGQGTKVEIKR
notes: also called G IgG
On to B1, for which the EC50 in assay [1] was 1.6 nM; in assay [2] it was 3.1 nM.

B2: MAb AR2A (antibody, V domains shown)
VH: B1 VH
VL: B1 VL
notes: also called IgG1 of Fab G
Consider B2, for which the residual binding was found to be 73% in assay [3]; 76% in assay [4]; 75% in assay [5]; 72% in assay [6]; 75% in assay [7]; 79% in assay [8]. Besides, the figures for the residual binding in assay [9], in assay [10] and in assay [11] were 93%, 132% and 79%, respectively.

B3: MAb AR3C (antibody, V domains shown)
VH: LEQSGAEVKKPGSSVKVSCETSGGTLDNYALNWVRQAPGQGLEWIGGVVPLFGTTRNAQKFQGRVTISDDKSTGTGHMELRSLRSEDTAVYYCVRSVTPRYCGGGFCYGEFDYWGQGTLVTVSS
VL: ELTQSPATLSVSPGERATLSCRASQSVSSNLAWYQQKPGQAPRLLIYGASTRATGIPARFSGSGSGTEFTLTVSRLEPEDSAVYFCQQYYRSPLTFGGGTKVEIKR
notes: also called IgG1 of Fab H3
For B3, the residual binding came out at 117% in [3]; 103% in assay [4]; 97% in [5]; 75% in assay [6]; 163% in assay [7]; 149% in assay [8]. For the same molecule, the residual binding stood at 105% in assay [9] and 82% in assay [11].

B4: MAb AR1B (IgG1 from Fab D1) (antibody, V domains shown)
VH: LESGGGLVQPGGSLRLSCEASGYYFSSFAMSWVRQTPGKGLEWVSSIAGGTLGRTSYRDSVKGRFTISRDNSKNTVFLHMNNLRPEDTAVYYCAKDPLLFAGGPNWFDHWGQGTLVTVSS
VL: not shown
As for B4, the half-maximal effective concentration (EC50) in [1] is 0.6 nM; in [2] it was 0.4 nM.

B5: MAb AR1B (antibody, V domains shown)
VH: B4 VH
VL: not shown
notes: also called IgG1 of Fab D1
With B5, the residual binding in assay [3] was determined as 95%; in assay [4] it was 95%; in [5], 97%; in [6] it was 96%; in [7] it was 101%; in assay [8] it was 101%. Moreover, the residual binding was found to be 102% in assay [9], 103% in [10] and 102% in [11].

B6: MAb AR1A (antibody, V domains shown)
VH: LEQSGAEVKKPGSSVKVSCRASGSPYSSYTITWVRQAPGQGLEWMGGIILMTGKANYAQKFQGRVTITADRATATAYMEMSSLTSDDTAIYYCARDPYVYAGDDVRSLSRWGQGTPVIVSS
VL: not shown
notes: also called IgG1 of Fab B2
As to B6, the residual binding turned out to be 87% in assay [3]; 82% in [4]; 79% in [5]; 78% in assay [6]; 100% in [7]; 69% in [8]. The residual binding in assay [9] amounted to 80%; in assay [10], 55%; in assay [11], 58%.

The values are drawn from patent US20110311550A1 (Scripps Research, published 2011).
